In patent publication US9202600B2, “Method for production of radioisotope preparations and their use in life science, research, medical application and industry” (priority 2005, dated 2015):
“Also recorded” adds a separate entry of the source.

Key:
[1] = Daughter nuclide ingrowth and shelf-life of the 149Tb-labeled bioconjugate; assay type: physicochemical; conditions: for increase of the long-lived daughter content, factor: fixed dose applied 4 hours after the final purification of the isotope (EOS)
Description: Spallation reaction in combination with on line mass separator technology was used for the production of ^149Tb for this study. The radiochemical separation and purification of the […] was relatively easy to perform in about 30 minutes in this specific case, since the inventors started from non-carrier added preparations. The final ^149Tb preparation was obtained in very high purity and in a small volume, the labeling of the bioconjugate was fast (10 minutes) and almost quantitative. The administration of the preparation should be carried out as rapidly as possible after purification of the ^149Tb, since levels of contamination with daughter nuclides will increase with time. For example, application of a fixed dose of the ^149Tb-labeled bioconjugate 4 hours after the final purification of the isotope itself (EOS) leads to an increase of the long-lived daughter content by a factor of 2. According to the preliminary dose estimation one could define a shelf-life for the labelled ^149Tb-labeled bioconjugate of about 4-6 hours. For a longer delay it would be advisable to repurify the ^149Tb from the accumulated daughter products, a process that could be expected to require 30 minutes.

[2] = biological target: T1, CD20 (Homo sapiens, UniProt P11836); assay: Cell binding of the labeled antibody; assay type: cell-based; conditions: without extrapolation to infinite antigen excess
T1 construct: endogenous in cells
T1 sequence (P11836 1-297): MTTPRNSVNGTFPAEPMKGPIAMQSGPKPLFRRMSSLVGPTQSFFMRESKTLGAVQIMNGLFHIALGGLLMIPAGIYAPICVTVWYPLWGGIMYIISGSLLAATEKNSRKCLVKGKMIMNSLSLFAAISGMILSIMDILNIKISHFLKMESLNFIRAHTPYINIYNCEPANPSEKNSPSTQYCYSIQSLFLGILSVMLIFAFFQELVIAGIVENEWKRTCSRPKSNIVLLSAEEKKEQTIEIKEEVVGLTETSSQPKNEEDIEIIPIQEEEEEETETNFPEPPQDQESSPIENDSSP
Description: 25-40 μl of the ^149Tb solution characterized above was used immediately for the labeling procedure. The pH was adjusted to 5.5 by adding 60 μl of 3 M CH3COONH4 solution, followed by the addition of 10 μl (40 mg/ml) ascorbic acid. After adding 5 μl of a stock solution of the chelated antibody in PBS (10 mg/ml) the mixture was incubated for 10 min at room temperature, before dilution to a final volume of 1.0 ml in PBS-1% human serum. […] The injection of the radioimmuno-conjugate into the mice was performed 1 h after EOS. The in vitro behavior of the labeled bioconjugate (immunoreactivity, cell binding, cell killing efficiency) has been described in a previous paper [Vranjes S D, Miederer M, Comor J J, Soloviev D, Beyer G-J and the ISOLDE collaboartion. Labeling of monoclonal antibodies with 149-Th for targeted alpha therapy. J Lab Comp Radiopharm 2001; 44:718-720]. With the same antibody the inventors observed up to 55% cell binding without extrapolation to infinite antigen excess.

[3] = Biodistribution of 149Tb-labeled Rituximab and retention of long-lived daughter radioactivity (gamma spectroscopy of organs); assay type: in vivo, SCID mice; conditions: for Biodistribution, Liver: SCID mouse, 2 h p.i. (i.v.)
Description: (§1) The in vivo studies were performed using 26 female SCID mice (C.B.-17/ICR, Iffa Credo) under the authorization Nr: GE 31.1.1049/1879/11. The mice, which were 8 weeks old at the start of the experiment and weighed 20 g on average, were kept in sterile, ventilated boxes. […] Each mouse received 5-10^6 Daudi cells by injection of 0.2 ml cell suspension in PBS into the tail vein. […] According to the authorized protocol the mice were surveyed for 120 days: their behavior was logged each day, their condition was supervised once a week by a veterinarian, and they were weighed three times a week. At the appearance of obvious signs of paralysis, visible tumor masses, or a weight loss of >15%, the mice were sacrificed. One mouse was sacrificed shortly after injection (2 h p.i.) and kept deep-frozen for later analysis, in order to act as a reference for later quantification of the daughter radioactivity distribution.
Organ samples were taken from the sacrificed mice and the radioactivity concentration of the long-lived daughter products was determined by using high-resolution gamma spectroscopy (18% HP—Ge detector in combination with the Gamma spectrometer Genie 2000, Canberra). Whole, intact mice, as well as isolated organ samples were measured. Since the radioactivity content of the samples was essentially very low, long measuring times (between 1 and 24 hours) were applied.

[4] = system: Daudi cells; assay: Survival of SCID mice i.v. xenografted with Daudi cells (leukemia model) after immunotherapy or radioimmunotherapy; assay type: in vivo; conditions: for protection / disease status over 120 days observation: 5.5 MBq 149Tb-labeled Rituximab (5 μg), single i.v. injection
Description: Daudi cells (ATCC Nr. CCL-213) were used to simulate a leukemia model in mice. The cells were cultured in RPMI 1640 medium supplemented with 10% heat-inactivated fetal calf serum and 0.5% penicillin (10000 U/ml)/streptomycin (10 mg/ml) (Sigma-Aldrich). The cell suspension to be injected into mice was prepared by centrifuging the culture for 3 min at 1200 rpm, washing with PBS and re-suspending in PBS at 2.5-10^7 cells per ml.
as §1
The survival of animals until sacrifice because of disease development or the end of the experiment (no disease development) was compared between the different groups according a Kaplan Meier analysis using the Lee-Desu evaluation of the Unistat 3.0 statistical package (Megalon, Novato Calif., USA).

[5] = 2 h p.i., listed as 149Tb-CHX-A-DTPA-Rituximab
[6] = listed as 149Tb-CHX-A-DTPA-Rituximab
[7] = Group 3, 5 μg 149Tb-labeled Rituximab (5.55 MBq) i.v. 2 days after Daudi cell inoculation

^149Tb-labeled Rituximab
shelf-life ([1]; defined according to the preliminary dose estimation): 4 to 6 h | increase of the long-lived daughter content, factor ([1]; listed as 149Tb labeled bioconjugate): increase the activity of the daughter product be by a factor 2. In this way | increase of the long-lived daughter content, factor ([1]; listed as 149Tb-labeled bioconjugate): 2 | cell binding [2]: up to 55% | Biodistribution, Body total ([3]; 2 h p.i.): 100 % i.d./Organ | Biodistribution, Bone ([3]; 2 h p.i.): 9.1 ± 0.7 %/g tissue | Biodistribution, Muscles ([3]; 2 h p.i.): <0.2 %/g tissue | Biodistribution, Bone ([3]; 2 h p.i., bone total calculated as 9 × both femur activity): 13 ± 1 % i.d./Organ | Biodistribution, Kidney ([3]; 2 h p.i., both kidneys measured together, listed as 149Tb-CHX-A-DTPA-Rituximab): 24 %/g tissue | Biodistribution, Heart [3, 5]: 41 %/g tissue | Biodistribution, Spleen [3, 5]: 42 %/g tissue | share of the retained daughter activity located in bone tissue ([3]; 120 days after injection): 91.1% | Remaining daughter radioactivity, Blood ([3]; 120 d p.i.): <0.01 % i.d./Organ | Remaining daughter radioactivity, Body total (retention of the long-lived daughter products) ([3]; 120 d p.i.): 28.4 ± 4 % i.d./Organ | Remaining daughter radioactivity, Bone ([3]; 120 d p.i.): 13 ± 2 %/g tissue | Remaining daughter radioactivity, Heart ([3]; 120 d p.i.): <0.01 % i.d./Organ | Remaining daughter radioactivity, Lung ([3]; 120 d p.i.): <0.01 % i.d./Organ | Remaining daughter radioactivity, Muscles ([3]; 120 d p.i.): <0.02 % i.d./Organ | Remaining daughter radioactivity, Bladder ([3]; 120 d p.i., bladder measured with urine): <0.01 % i.d./Organ | Remaining daughter radioactivity, Bone ([3]; 120 d p.i., bone total calculated as 9 × both femur activity): 26 ± 4 % i.d./Organ | Remaining daughter radioactivity, Body total (retention of the long-lived daughter products) ([3]; 120 d p.i., listed as 149Tb-CHX-A-DTPA-Rituximab): 28.4±4 % i.d./Organ | Remaining daughter radioactivity, Body total (retention of the long-lived daughter products) ([3]; 120 d p.i., listed as labeled antibody conjugate): 28.4±4 % i.d./Organ | Biodistribution, Liver [3]: 18 ± 3 % i.d./Organ | Biodistribution, Liver [3, 6]: 18±3 % i.d./Organ | primary injected radioactive atoms excreted from the mice ([3]; after 120 days): 71.6% | time after which the only mouse of the group was lost (abdominal tumor growth) ([4]; 5.5 MBq 149Tb-labeled Rituximab (5 μg Rituximab per animal)): 48 days | protection / disease status over 120 days observation [4]: almost complete protection; also recorded: long-term survival without evidence of any disease at 120 days | protection / disease status over 120 days observation [4, 6]: without any visible signs of a disease | protection / disease status over 120 days observation ([4]; listed as 149Tb-CHX-DTPA-Rituximab): almost completely protected | Follow-up (120 days after the therapy): no pathologic changes [4, 7]: 89% no | Follow-up (120 days after the therapy): paralyzed, abdominal tumor [4, 7]: 11% paralyzed, | tumor free survival for >120 days, share of treated animals ([4]; SCID mice, single i.v. 5.5 MBq labeled conjugate (5 μg Rituximab) 2 days after i.v. graft of 5·10^6 Daudi cells): 89% | signs of toxicity over four months ([4]; xenografted SCID mice treated with 149Tb-labeled Rituximab): without detectable signs of toxicity
